The record followed here is US20110223168A1 (published 2011).

Numbering of substitutions follows the chain as printed.

Assay [1] concerns the target T1, human TNFα (human, UniProt P01375 77-233).
T1 construct: Coated on plates, coupled to a CM5 chip, or added in solution (10 ng/ml) in the TNF receptor assay; the assay paragraphs often print only 'TNF'; also called TNF alpha; TAR1
As to the kind of experiment: not stated; printed under 'Equilibrium dissocation constant (Kd = Koff/Kon)' in the data summary.

Assay [2] concerns the target T1, human TNFα. As to the kind of experiment: TNF receptor assay: inhibition of TNF binding to TNFR1-Fc (ELISA). For orientation: ELISA stands for enzyme-linked immunosorbent assay.
Assay [3] deals with T1, human TNFα. As to the kind of experiment: antigen ELISA. As for the experimental part:
(§1) Binding activity of dimeric recombinant proteins was compared to monomer by Protein A/L ELISA or by antigen ELISA. Briefly, a 96 well plate is coated with antigen or Protein A/L overnight at 4° C. The plate washed with 0.05% Tween-PBS, blocked for 2 hrs with 2% Tween-PBS. The sample is added to the plate incubated for 1 hr at room temperature. The plate is washed and incubated with the secondary reagent for 1 hr at room temperature. The plate is washed and developed with TMB substrate. Protein A/L-HRP or India-HRP was used as a secondary reagent.

Assay [4] concerns the target bovine serum albumin (BSA) (bovine, UniProt P02769 25-607). As to the kind of experiment: antigen ELISA. As for the experimental part: as §1
The target of assay [5] is T1, human TNFα. The assay can be described thus: TNF receptor assay; fermenter-expressed, cation exchange FPLC pure dimer.
For assay [6], the target named is T1, human TNFα. The assay can be described thus: TNF receptor assay: inhibition of TNF binding to TNFR1-Fc (ELISA). This is another data set of the same source.
Assay [7] deals with T2, hen egg lysozyme (HEL) (hen, UniProt P00698 19-147).
T2 construct: also called hen egg white lysozyme
T2 sequence (P00698 19-147): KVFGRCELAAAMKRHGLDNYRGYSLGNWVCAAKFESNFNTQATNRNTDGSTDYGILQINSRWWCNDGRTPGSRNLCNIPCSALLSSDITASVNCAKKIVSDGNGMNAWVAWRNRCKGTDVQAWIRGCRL
As to the kind of experiment: selection from dAb libraries.

In assay [8] the target is T1, human TNFα. As to the kind of experiment: TNF receptor assay: inhibition of TNF binding to TNFR1-Fc (ELISA). The source holds these as a separate data set.
The target of another assay is T3, human p55 TNF receptor (human, UniProt P19438 30-211, limits assumed).
T3 construct: Coupled to a CM5 chip or coated on immunotubes/plates; also called TNF receptor 1; TNFα receptor
T3 sequence (looked up): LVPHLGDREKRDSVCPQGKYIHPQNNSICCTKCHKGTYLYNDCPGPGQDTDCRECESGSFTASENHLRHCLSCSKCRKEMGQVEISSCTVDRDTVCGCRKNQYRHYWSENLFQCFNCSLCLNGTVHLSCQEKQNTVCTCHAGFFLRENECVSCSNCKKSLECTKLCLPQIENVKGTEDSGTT
The assay can be described thus: selection from dAb libraries.

For assay [9], the target named is T2, hen egg lysozyme (HEL). As to the kind of experiment: ELISA on HEL coated at 3 mg/ml, detection with 9e10 (anti-myc) and anti mouse IgG-HRP.

T1 sequence (P01375 77-233 limits assumed): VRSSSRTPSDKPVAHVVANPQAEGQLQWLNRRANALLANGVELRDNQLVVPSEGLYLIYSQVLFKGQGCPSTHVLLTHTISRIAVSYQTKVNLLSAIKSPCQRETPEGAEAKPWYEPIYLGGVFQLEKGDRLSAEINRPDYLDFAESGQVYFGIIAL
Chain of bovine serum albumin (BSA) (P02769 25-607 limits assumed): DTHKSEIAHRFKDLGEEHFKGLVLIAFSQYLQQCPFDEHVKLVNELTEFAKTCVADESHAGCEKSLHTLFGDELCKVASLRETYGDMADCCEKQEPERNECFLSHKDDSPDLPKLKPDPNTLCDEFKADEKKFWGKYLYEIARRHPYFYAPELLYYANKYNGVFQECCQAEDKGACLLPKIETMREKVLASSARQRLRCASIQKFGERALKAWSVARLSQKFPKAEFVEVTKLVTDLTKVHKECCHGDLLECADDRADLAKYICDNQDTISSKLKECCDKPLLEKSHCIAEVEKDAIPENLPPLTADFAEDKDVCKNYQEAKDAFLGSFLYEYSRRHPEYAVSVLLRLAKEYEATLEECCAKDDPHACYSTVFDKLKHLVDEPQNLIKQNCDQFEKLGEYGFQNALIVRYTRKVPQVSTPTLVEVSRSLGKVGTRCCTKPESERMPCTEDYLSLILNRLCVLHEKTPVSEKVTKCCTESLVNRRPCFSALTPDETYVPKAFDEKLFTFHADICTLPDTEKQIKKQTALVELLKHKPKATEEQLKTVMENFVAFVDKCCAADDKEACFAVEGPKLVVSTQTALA

B1: TAR1-5-19 monomer (other)
VL: DIQMTQSPSSLSASVGDRVTITCRASQSIDSYLHWYQQKPGKAPKLLIYSASELQSGVPSRFSGSGSGTDFTLTISSLQPEDFATYYCQQVVWRPFTFGQGTKVEIKR
notes: also called TAR1-5-19 dAb
In the assay with human TNFα [1], B1 returned a Kd of 30 nM. Further, the half-maximal inhibitory concentration (IC50) with human TNFα [2] amounted to 30 nM.

B2: dAb1 monomer (other)
VL: B1 VL with D30Y, S31D, Y32A, H34E, S50T, E53R, V92M, W93Q, F96V
notes: Vκ dAb monomer; also called partner dAb in TAR1-5d1, d5, d6
B2: the binding result is given as “binds” with human TNFα [3] and “no binding” in [4].

B3: dAb3 monomer (other)
VL: DIQMTQSPSSLSASVGDRVTITCRASQSVKEFLWWYQQKPGKAPKLLIYMASNLQSGVPSRFSGSGSGTDFTLTISSLQPEDFATYYCQQKFKLPRTFGQGTKVEIKR
notes: Vκ dAb monomer; also called partner dAb in TAR1-5d4
B3: the binding result in assay [4] is recorded as “no binding”.

B4: TAR1-5-19d4 (other)
chain: DIQMTQSPSSLSASVGDRVTITCRASQSIDSYLHWYQQKPGKAPKLLIYSASELQSGVPSRFSGSGSGTDFTLTISSLQPEDFATYYCQQVVWRPFTFGQGTKVEIKRGGGGSGGGGSGGGGSGGGGSGGGGSDIQMTQSPSSLSASVGDRVTITCRASQSVKEFLWWYQQKPGKAPKLLIYMASNLQSGVPSRFSGSGSGTDFTLTISSLQPEDFATYYCQQKFKLPRTFGQGTKVEIKR
notes: also called TAR1-5-19 dimer 4
With B4, the IC50 in the assay with human TNFα [5] was 8 nM; with human TNFα [6], 2 to 5 nM.

B5: HEL4 (other)
VH: EVQLLESGGGLVQPGGSLRLSCAASGFRISDEDMGWVRQAPGKGLEWVSSIYGPSGSTYYADSVKGRFTISRDNSKNTLYLQMNSLRAEDTAVYYCASALEPLSEPLGFWGQGTLVTVSS
notes: VH dAb; also called HEL4 VH dAb; anti-hen egg white lysozyme dAb
As for B5, in the assay with hen egg lysozyme (HEL) [7], the binding result was “binds”.

B6: TAR1-5-19CYS trimer (TMEA) (other)
VL: DIQMTQSPSSLSASVGDRVTITCRASQSIDSYLHWYQQKPGKAPKLLIYSASELQSGVPSRFSGSGSGTDFTLTISSLQPEDFATYYCQQVVWRPFTFGQGTKVEIKRC
modifications: C-terminal Cys coupled to TMEA (Tris[2-maleimidoethyl]amine)
notes: also called TAR1-5-19 homotrimer; trimeric TAR1-5-19CYS
Regarding B6, in the assay with human TNFα [8], the IC50 came to 0.3 nM.

B7: TAR2h-5 (other)
VH: EVQLLESGGGLVQPGGSLRLSCAASGFTFDLYNMFWVRQAPGKGLEWVSFISQTGRLTWYADSVKGRFTISRDNSKNTLYLQMNSLRAEDTAVYYCAKTLEDFDYWGQGTLVTVSS
notes: VH dAb against TNF receptor 1; also called TAR2-5; TAR2h-5 VH dAb
For B7, the binding result with human p55 TNF receptor was “binds”. This molecule also displayed an ELISA signal (background) in the assay with hen egg lysozyme (HEL) [9] of 0.069.

For orientation: Kd means the free concentration of one partner at which half of the binding sites on the other are occupied at equilibrium, for simple one-to-one binding. Usually IC50 stands for the midpoint of a concentration-inhibition curve. Lower therefore signals greater potency.
